The series concerns the molecule itself. The experiment in a line: SEC; cell lysate of 32D BCR-ABL cells on Superdex 200 10/300GL, 50 mM phosphate, 0.15 M NaCl, pH 7.2; fractions by UV absorbance and western blot. Background: SEC sorts molecules by how far they enter the pores of the column.

The term stoichiometry N denotes a count of units in the complex or per binding partner.

B1: Flag-tagged K270R mutant PKM2 expressed in 32D BCR-ABL cells (enzyme)
chain: not shown
notes: pyruvate kinase, M2 isoform (PKM2); also called PKM2^K270R; KR; source: 32D BCR-ABL cells, ectopically expressed, in lysate
Take B1: the “stoichiometry N” value came out at 4.
